Measurements published in patent US20050180952A1, “Methods for intradermal delivery of therapeutics agents” (priority 2003, published 2005).

Tested on: B16F10 melanoma cells
Assay: Effects of ID and IP delivery on antitumor activity of IL-12 (10 and 100 ng), tumor size
Format: in vivo, C57BL Mice
Details: for tumor size increase: by day 21
Description: C57BL Mice were inoculated subcutaneously (SC) with 1 million B16F10 melanoma cells (ATCC, Inc.). Treatment was initiated with IL-12 injections 7 days post-inoculation at two levels (10 and 100 ng) given as either an intraperitoneal (IP) or intradermal (ID) (tumor bearing side) dose. IL-12 doses were repeated every other day for a total of 4 treatments. As a control, the same volume of complete medium (PBS) was injected ID on the tumor bearing side. True negatives were also run in conjunction for serum and tissue samples (n=15/condition). Weights and tumor size were measured on days 7, 11, 14, 18 and 21. Blood samples were also collected at weekly intervals for IL-12 analysis. Two tumor diameters at right angles were measured with digital calipers, and the average tumor size was plotted with respect to days post inoculation with tumor cells.

B1: IL-12: rmIL-12 (R&D Systems), interleukin-12 cytokine given in PBS solution (protein, UniProt P43431 23-215; P43432 23-335, looked up)
Interleukin-12 subunit alpha: RVIPVSGPARCLSQSRNLLKTTDDMVKTAREKLKHYSCTAEDIDHEDITRDQTSTLKTCLPLELHKNESCLATRETSSTTRGSCLPPQKTSLMMTLCLGSIYEDLKMYQTEFQAINAALQNHNHQQIILDKGMLVAIDELMQSLNHNGETLRQKPPVGEADPYRVKMKLCILLHAFSTRVVTINRVMGYLSSA
Interleukin-12 subunit beta: MWELEKDVYVVEVDWTPDAPGETVNLTCDTPEEDDITWTSDQRHGVIGSGKTLTITVKEFLDAGQYTCHKGGETLSHSHLLLHKKENGIWSTEILKNFKNKTFLKCEAPNYSGRFTCSWLVQRNMDLKFNIKSSSSSPDSRAVTCGMASLSAEKVTLDQRDYEKYSVSCQEDVTCPTAEETLPIELALEARQQNKYENYSTSFFIRDIIKPDPPKNLQMKPLKNSQVEVSWEYPDSWSTPHSYFSLKFFVRIQRKKEKMKETEEGCNQKGAFLVEKTSTEVQCKGGNVCVQAQDRYYNSSCSKWACVPCRVRS
- average tumor size (10 ng, ID, Day 11): 77 mm^2
- average tumor size (10 ng, ID, Day 14): 120 mm^2
- tumor size increase from the previous measurement (10 ng, ID, Day 14): 56%
- average tumor size (10 ng, ID, Day 18): 112 mm^2
- tumor size decrease from the previous measurement (10 ng, ID, Day 18): 6%
- average tumor size (10 ng, ID, Day 21): 250 mm^2
- tumor size increase from the previous measurement (10 ng, ID, Day 21): 121%
- average tumor size (10 ng, IP, Day 11): 68 mm^2
- average tumor size (10 ng, IP, Day 14): 113 mm^2
- tumor size increase from the previous measurement (10 ng, IP, Day 14): 63%
- average tumor size (10 ng, IP, Day 18): 206 mm^2
- tumor size increase from the previous measurement (10 ng, IP, Day 18): 82%
- average tumor size (10 ng, IP, Day 21): 262 mm^2
- tumor size increase from the previous measurement (10 ng, IP, Day 21): 27%
- final average ID tumor size smaller than IP (100 ng, Day 21): 47%
- average tumor size (100 ng, ID, Day 11): 54 mm^2
- average tumor size (100 ng, ID, Day 14): 75 nm^2
- tumor size increase from the previous measurement (100 ng, ID, Day 14): 39%
- average tumor size (100 ng, ID, Day 21): 142 mm^2
- tumor size increase (100 ng, ID): 89%
- average tumor size (100 ng, IP, Day 11): 70 mm^2
- average tumor size (100 ng, IP, Day 14): 126 mm^2
- tumor size increase from the previous measurement (100 ng, IP, Day 14): 80%
- average tumor size (100 ng, IP, Day 21): 302 mm^2
- tumor size increase (100 ng, IP): 139%
